We go through 1 sequence from paper PMC9005958.

This series relates to T1, GST-rCtrA (Ehrlichia chaffeensis), ORF:1c7d897d.
T1 sequence: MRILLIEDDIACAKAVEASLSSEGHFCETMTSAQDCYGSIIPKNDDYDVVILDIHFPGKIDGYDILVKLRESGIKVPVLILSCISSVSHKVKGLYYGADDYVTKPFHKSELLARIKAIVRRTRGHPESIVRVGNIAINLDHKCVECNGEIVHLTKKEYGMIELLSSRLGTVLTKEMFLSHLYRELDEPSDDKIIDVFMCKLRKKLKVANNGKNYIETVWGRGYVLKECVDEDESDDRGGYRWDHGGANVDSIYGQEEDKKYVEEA
The experiment in a line: EMSA. (A gel shift assay detects complexes by their altered migration in electrophoresis.)

For “ATATAACCTAATAGTGACAAATAAATTAACAATAGTAGAAGTGTCATATAAAAGCAAGTCAGAATATAAATTTTTGTATAAAATATCGGTAACTTTTGTAAGGAAAATTTAATATATTACGTCAGGTAAGTAATAGCAAAAAAACTGGTTAAGTATAGTATCATGTGTAAAGGTGAGAAAAACAGCACTTATAAACTAGTCCCCCCCCCCCCCCTCTTATTGCTACATTCTTTTGCCACTATTTTTATTTACCTGCAGCA (double strand) [p28 promoter]”, the binding result was “no binding”.
